Article PMC4271737

Tests used:
[1] = target: human angiotensin II type 1 receptor with a C-terminal GFP-H10 tag (AT1R-GFP-H10) (human) (UniProt P30556); assay: radioligand binding; non-solubilised membranes (briefly sonicated cells); 0.5 nM [125I]Sar1 with 100 nM unlabelled Sar1; bound and free ligand separated by filtration through 96-well glass fibre filter plates without polyethyleneimine; background from parental or uninfected cells
[2] = target: human angiotensin II type 1 receptor with a C-terminal decahistidine tag (AT1R-H10) (human) (UniProt P30556); assay: as above

A specific binding in membranes (dpm, set to 100%) [1] of 12000 dpm and a specific binding in membranes (dpm, set to 100%) [2] of 1400 dpm were found for “[^125I]sar^1-Ile^8-angiotensin II (peptide)” in this work.
